The results in this text go back to publication PMC4188077.

The target of the test is SeMet-substituted C. elegans ZYG-1 cryptic polo-box (CPB) domain (residues 338-564) (C. elegans). Nature of the test: SEC-MALS.

Consider “SeMet-substituted C. elegans ZYG-1 cryptic polo-box (CPB) domain (residues 338-564) (domain or fragment)”, for which the stoichiometry N – broadly, the number of molecules, sites or subunits per partner or assembly – stood at 2.
